Laboratory results as given in US20180282719A1 (published 2018).
Residue numbers refer to the chain shown, from its start.

T1: recombinant soluble human IL-6 receptor (SR344) (human, UniProt P08887 20-344, biotinylated (sites not given) where immobilized via streptavidin or used in phage ELISA)
T1 construct: also called soluble IL-6 receptor; membrane-type IL-6 receptor (when biotinylated and immobilized on the chip)
T1 sequence (looked up): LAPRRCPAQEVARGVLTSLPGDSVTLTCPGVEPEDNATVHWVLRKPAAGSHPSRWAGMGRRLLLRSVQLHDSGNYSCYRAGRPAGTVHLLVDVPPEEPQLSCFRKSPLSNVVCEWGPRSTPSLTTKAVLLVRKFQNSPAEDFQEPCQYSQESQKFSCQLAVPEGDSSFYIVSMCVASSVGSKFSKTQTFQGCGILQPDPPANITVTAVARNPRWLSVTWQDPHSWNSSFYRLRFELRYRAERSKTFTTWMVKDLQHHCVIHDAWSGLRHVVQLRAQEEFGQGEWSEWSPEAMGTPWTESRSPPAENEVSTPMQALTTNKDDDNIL

B1: humanized PM1 antibody (wild type, WT) (antibody, human IgG1, kappa, V domains shown)
VH: QVQLQESGPGLVRPSQTLSLTCTVSGYSITSDHAWSWVRQPPGRGLEWIGYISYSGITTYNPSLKSRVTMLRDTSKNQFSLRLSSVTAADTAVYYCARSLARTTAMDYWGQGSLVTVSS
VL: DIQMTQSPSSLSASVGDRVTITCRASQDISSYLNWYQQKPGKAPKLLIYYTSRLHSGVPSRFSGSGSGTDFTFTISSLQPEDIATYYCQQGNTLPYTFGQGTKVEIKR
notes: IgG1; also called WT-IgG1; wild type humanized anti-IL-6 receptor antibody
B2: H3pI/L73 (antibody, IgG1, V domains shown)
VH: QVQLQESGPGLVKPSETLSLTCAVSGHSISHDHAHSWVRQPPGEGLEWIGYISYSGITNYNPSLKGRVTISRDTSKNQFSLKLSSVTAADTAAYYCARSLARTTAMDYWGEGTLVTVSS
VL: DIQMTQSPSSLSASVGDSVTITCQASQHISSHLNWYQQKPGKAPELLIYYGSHLHSGVPSRFSGSGSGTDFTFTISSLEAEDAATYYCGQGNRLPYTFGQGTKVEIE
notes: tested as IgG1; also called H3pI/L73-IgG1; H3pl/L73
B3: Fv4-IgG1 (antibody)
heavy: not shown
light: DIQMTQSPSSLSASVGDSVTITCQASTDISSHLNWYQQKPGKAPELLIYYGSHLLSGVPSRFSGSGSGTDFTFTISSLEAEDAATYYCGQGNRLPYTFGQGTKVEIERTVAAPSVFIFPPSDEQLKSGTASVVCLLNNFYPREAKVQWKVDNALQSGNSQESVTEQDSKDSTYSLSSTLTLSKADYEKHKVYACEVTHQGLSSPVTKSFNRGEC
notes: VH3-IgG1 / VL3-CK
B4: H170/L82 (antibody, IgG1, V domains shown)
VH: B2 VH with D32H, N59H, S63H, S99V, T103I, Y108H
VL: B2 VL with H28D
notes: expressed and purified as IgG (IgG1); also called H170/L82-IgG1

The binders below were run against T1, recombinant soluble human IL-6 receptor … (assay: SPR Biacore T100, biotinylated SR344 on streptavidin chip (model of membrane-type IL-6 receptor), antibody 0.25 ug/mL as analyte, bound at pH 7.4, dissociation at pH 5.8, 37 C).
Protocol: (§1) Binding to the membrane-type IL-6 receptor was evaluated by evaluating binding to the IL-6 receptor immobilized on a sensor chip. SR344 was biotinylated in accordance with a method known among persons with ordinary skill in the art, and the biotinylated SR344 was immobilized on the sensor chip via streptavidin using the affinity between streptavidin and biotin. All the measurements were carried out at 37° C. The mobile phase buffer was 10 mM MES (pH 5.8), 150 mM NaCl and 0.05% TWEEN® 20 (polyoxyethelene sorbitan monolaurate).
(§2) The pH-dependently-binding clones were injected under the condition of pH 7.4 to allow them to bind to SR344, and then, the pH-dependent dissociation of each clone at the pH of the mobile phase, pH 5.8, was observed. The results are shown in FIG. 21 (results for Fv1-M71, Fv1-M73, Fv3-M71, and Fv3-M73 are shown in FIG. 21, while results for other clones are shown in FIGS. 17 and 19). Analyses were carried out in the same manner as in Example 10 and the pH dependencies of the dissociation rate constants of all of the eleven types of clones are shown in Table 12.

Q: B1 was tested. Which koff did it give?
A: 0.00025 s⁻¹

Q: Which koff does the source give for B2 here?
A: 0.00067 s⁻¹

Q: B3 was tested. Which koff did it give?
A: 0.0026 s⁻¹

These binders were tested against T1, recombinant soluble human IL-6 receptor … (assay: SPR Biacore T100, biotinylated SR344 on streptavidin chip (model of membrane-type IL-6 receptor), antibody as analyte, 37 C).

Q: How did the “kd (pH 5.8)/kd (pH 7.4)” value turn out when B1 was run?
A: 1

Q: How did the “kd (pH 5.8)/kd (pH 7.4)” value turn out when B2 was run?
A: 2.59

Q: B3 was tested. Which “kd (pH 5.8)/kd (pH 7.4)” value did it give?
A: 5.56

Each binder was assayed against T1, recombinant soluble human IL-6 receptor … (assay: SPR Biacore T100, biotinylated SR344 on streptavidin chip (model of membrane-type IL-6 receptor), antibody as analyte, bound at pH 7.4, dissociation at pH 5.8, 37 C).

Q: How did the koff turn out when B1 was run?
A: 0.00025 s⁻¹

Q: B2 was tested. Which koff did it give?
A: 0.00067 s⁻¹

Q: B3 was tested. Which koff did it give?
A: 0.0026 s⁻¹

What follows are binders tested against T1, recombinant soluble human IL-6 receptor … (assay: SPR Biacore T100, antibody on protein A/G chip, SR344 analyte, pH 7.4, 37 C).
Protocol: Kinetic analyses of antigen-antibody reactions at pH 5.8 and pH 7.4 were carried out using a Biacore™ T100 surface plasmon resonance system (GE Healthcare) on the four antibodies: humanized PM1 antibody (WT) and H3pI/L73, CLH5/L73, and H170/L82 produced in Examples 2 and 4 (buffer: 10 mM MES (pH 7.4 or pH 5.8), 150 mM NaCl, and 0.05% TWEEN® 20 (polyoxyethelene sorbitan monolaurate)). Various antibodies were bound onto a sensor chip immobilized with recomb-protein A/G (Pierce) by amine coupling. SR344 adjusted to concentrations of 9.8 to 400 nM was injected to the chip as an analyte. […] All the measurements were carried out at 37° C. Association rate constants kₐ (1/Ms) and dissociation rate constants kd (1/s) were calculated using Biacore T100™ Evaluation Software (GE Healthcare), and dissociation constants KD (M) were calculated on the basis of those values (Table 5). Moreover, the ratio of the affinities at pH 5.8 and pH 7.4 were calculated for each clone to evaluate pH-dependent binding. All the measurements were carried out at 37° C.

Q: For B1, which Kd is on record?
A: 2.1 nM

Q: And the koff?
A: 0.001 s⁻¹

Q: And the kon?
A: 510000 M⁻¹ s⁻¹

Q: Which results are given for B2?
A: Kd: 1.4 nM; koff: 0.00074 s⁻¹; kon: 540000 M⁻¹ s⁻¹

Q: Which Kd does the source give for B4 here?
A: 1.6 nM

Q: And the koff?
A: 0.0011 s⁻¹

Q: And the kon?
A: 680000 M⁻¹ s⁻¹

What follows are binders tested against T1, recombinant soluble human IL-6 receptor … (assay: SPR Biacore T100, biotinylated SR344 on streptavidin chip (model of membrane-type IL-6 receptor), antibody 0.25 ug/mL as analyte, 37 C).
Protocol: as §1, §2

Q: How did the “kd (pH 5.8)/kd (pH 7.4)” value turn out when B1 was run?
A: 1

Q: For B2, which “kd (pH 5.8)/kd (pH 7.4)” value is on record?
A: 2.59

Q: With B3 as the binder, how does the “kd (pH 5.8)/kd (pH 7.4)” value read?
A: 5.56

These binders were tested against T1, recombinant soluble human IL-6 receptor … (assay: SPR Biacore T100, biotinylated SR344 on streptavidin chip (model of membrane-type IL-6 receptor), antibody 0.25 ug/mL as analyte, bound at pH 7.4, dissociation at pH 7.4, 37 C).

Q: For B1, which koff is on record?
A: 0.00025 s⁻¹

Q: B2 was tested. Which koff did it give?
A: 0.00026 s⁻¹

Q: With B3 as the binder, how does the koff read?
A: 0.00047 s⁻¹
